Results reported in the DeepSol protein solubility set.

Experiment: soluble on expression in E. coli; label from the status in PepcDB or PDB records

| Sequence | soluble on expression in E. coli |
| --- | --- |
| MSLEIVQEGIAKIIVPEIPKTVSSDMPVFYNPRMRVNRDLAVLGLEYLCKKLGRPVKVADPLSASGIRAIRFLLETSCVEKAYANDISSKAIEIMKENFKLNNIPEDRYEIHGMEANFFLRKEWGFGFDYVDLDPFGTPVPFIESVALSMKRGGILSLTATDTAPLSGTYPKTCMRRYMARPLRNEFKHEVGIRILIKKVIELAAQYDIAMIPIFAYSHLHYFKLFFVKERGVEKVDKLIEQFGYIQYCFNCMNREVVTDLYKFKEKCPHCGSKFHIGGPLWIGKLWDEEFTNFLYEEAQKREEIEKETKRILKLIKEESQLQTVGFYVLSKLAEKVKLPAQPPIRIAVKFFNGVRTHFVGDGFRTNLSFEEVMKKMEELKEKQKEFLEKEGHHHHHH | soluble |
| MSLEKNKEYIFDIISQGYEGEGIAKIDNKYPIFIEGALKGEKVKVRIVKVNKNFAYGKLMEVLEASEERVNPPCAIYKRCGGCKLQHASYKAQLDFKWDRVKDCVSKIGKLDPSIVKYPLGMEEPWRYRNKVQLPIGLINGEVKIGFFAPRSHDIIDMESCLIQDEIGDKVVKLTREWIEKFNIRPYNVDGEYDEKGIVRHIMIRRGFTTNEVMVVLVTNGEKLPHKEEFVDLMVKNIPGIKSVIQNINSKKTNVILGLESKTLWGEDTISDYIGDFRFNISPLSFFQVNPTQTEVLYGKALEYANLTGNEEVFDAYCGTGTITLFLSQKAKKVYGVEIIPQAIDNAWINAKENKVENVEFFVGESEVVIPDLINKGVKADVVVVDPPRKGCDKKLLDAITNINAKKIVYVSCDPSTLGRDLAILEENGYKTLEVQPVDMFPNTSHVENVAKLIKKEGHHHHHH | soluble |
| MSLENVDPFDIIRQFRSVIAKTSLQASSNIEGLDTVWNSDLVLEANFWHLVEILLSFRTSQEFLDKESSISSKPYNSSIIFEKELLQKDKNLYQIWLIIVWIEGNFPFVEKPSNIPSSKWTNTLVTSGLMSSDLDYPLRDCSVVINDKDKADDHVFYKYVYELLLCGNYDQIFEECKLSDNITLNMIMCGMQEYVDPSIDVQLKDEFEVQQGVKKHSLWRRAVYSLSQNDKLDKYERAIYSYLAGDIPNDEVLQTLNWDSELLVYLNQILKIEVENYLLQNGKVNNEGHHHHHH | soluble |
| MSLEQFNVWFTVSEVQGLVKSGGLADVAKALPQALKALHQQVAIALPAYRSVPGKEDAELVLETELTHWPHTQYRVLKRDLDGVPIYLIDCPAYFDRPALYAENNQAYADNGERFGFFSAACLDVLPKLGIQPDIIHANDWHTGLVPFLLKTRYRYDSFFEQVKSVLTVHNAIFKGIFSYHQLEVIPELNLSGMEFLQYGHDHVSMLRAGIAFADKVNAVSPNYAAELLTPLGAHGLVDDFVRRARDLHGIVNGCDYSEWNPRTDHYLPATYSDEPESMRKGKALCKTALQEELHLPVTDVPLFGMVCRLTHQKGFHYLLPILEQFLRNNVQVVIVGTGEPEVAARLNKIAHYHRAKFAFVETYSERLAHWVEAGSDFFLMPSEFEACGLNQIYSMAYGTLPIVREVGGLKDTVNDYDKFPERATGFGYQEPTPEALLITMQRALLFYLQQPEEMLKVQQRAMQQNFSWEESAQEYMKMYRLARFEGHHHHHH | soluble |
| MSLEQKWKWWEEERYPEGIKWKFLEHKGPVFAPPYEPLPENVKFYYDGKVMKLSPKAEEVATFFAKMLDHEYTTKEIFRKNFFKDWRKEMTNEEKNIITNLSKCDFTQMSQYFKAQTEARKQMSKEEKLKIKEENEKLLKEYGEGHHHHHH | soluble |
| MSLEREVCVNQLLKFLDSIRGRLSFRMVERLFSRGLDENPIFEAISKSGALAKNVIIILGGRGCGKTLVMRYIKHYFEPEGWDYKYFSGDQFKEADAQELMKIISETRDLLENSEDYKVIVGIDDVVEASEAIRDTIKNQLVPLVVDYAGRIKLVISGQSERVVGTTTVLHILEDTLGRSPKAEMLFGEYPGEGHHHHHH | soluble |
| MSLESIKKRAYEIENELGKEIEEVCNFIFNNPELGEEEYISSKYLVEKMKEYGFDTVYPYCNMETAFRAELGDNDGPTIAFLAEYDALPGYGENKEPAHACGHNWIAASTLGACIVLSKLKENFKGKIVLIGTPAEETTGGKCDLVKAGAFDDVDVSYQMHIEAFNNINCKALAIDSLEFSFEGVSAHAASHPHMGVNALDAVQLTFAGINALRQHVKSDVRIHGIVSNGGEAPNIVPEKAACKFFVRAAERSYLDEVTKKVINCAKGAELMTGAKLSYRYFENSFDNIINNKVLQKITKNNLIEAGITDILEGKDGPVGSTDIGNVSQVCPTMYTEIALDISPMVYVHEKEFLNYANSEEAYDKLHKAVKAMVGCALEIYLEDGLLDEIKKNHLNEGHHHHHH | soluble |
| MSLESRPLHVVLGNEACDLDSTVSALALAFYLAKTTEAEEVFVPVLNIKRSELPLRGDIVFFLQKVHIPESILIFRDEIDLHALYQAGQLTLILVDHHILSKSDTALEEAVAEVLDHRPIEPKHCPPCHVSVELVGSCATLVTERILQGAPEILDRQTAALLHGTIILDCVNMDLKIGKATPKDSKYVEKLEALFPDLPKRNDIFDSLQKAKFDVSGLTTEQMLRKDQKTIYRQGVKVAISAIYMDLEAFLQRSNLLADLHAFCQAHSYDVLVAMTIFFNTHNEPVRQLAIFCPHVALQTTICEVLERSHSPPLKLTPASSTHPNLHAYLQGNTQVSRKKLLPLLQEALSAYFDSMKIPSGQPETADVSREQVDKELDRASNSLISGLSQDEGHHHHHH | not soluble |
| MSLETILLNINISADKTSPKTLRKQLNKVLTSLDVNIQTSRKVELVTSEIVTNIVTHNNDNHTNITLKFGKCKNGYWLDIYDNGAEFDPLSGDIPELNDEFLLFESSRGLYLIRSQCDFIEYEYLNKIKNNRIHCVWYDENINAGPTILIIDDSEIELAIVSNLLSDQFSVLQASNGLDAISILDSHSIDIIISDLHMPTINGVDLYVYLQKHLDKIIPFIFLTSDTNEMTGLREDAYRIGADDVLTKPISQQMLVNAIERALKRNNEGHHHHHH | soluble |
| MSLEVQDDINSVDDIDSKLYHSVEWFYENKMYEDAIVATIAIIRRFLLCGKLAPLKAFSKGKNFKLLLVEYDTQLQTKSLIFQNEPEIVTEEDKEELLAYASLIEGLILIDEWKKFVSTQINSQGKWLSTGVDSSIDKTSKTLLNLIFKWFKNTSSEKDSDLAIYSEFRSIYVPYLIIELLKIFQNAREKDWKYMRSAFSLINDVANEEQNDFLSCFLKCGRLDEFLVKAGEVSIVAVEKGISGIFYEGHHHHHH | not soluble |
| MSLEYKLTPSYLLKENMVLACGNILFADDGFSVHVIEKLQELLTEEEKENIALVDAGAGAPQQVLTLIDSEAKTKKIIVVDIIDYGLEPGEIKILTMDDLPKPEHTKVDSHDWPLSTTMYRVFRDAPHEIDFKVVGCQKKYVSEPDVVIELSEEVQNAVDVAVDIVLSELRGKPINEGHHHHHH | soluble |
| MSLFARQLQSLTASGIRTQQVRLASTEVSFHTKPCKLHKLDNGPNTSVTLNREDALKYYRDMQVIRRMESAAGNLYKEKKIRGFCHLYSGQEACAVGMKAAMTEGDAVITAYRCHGWTWLLGATVTEVLAELTGRVAGNVHGKGGSMHMYTKNFYGGNGIVGAQQPLGAGVALAMKYREQKNVCVTLYGDGAANQGQLFEATNMAKLWDLPVLFVCENNGFGMGTTAERSSASTEYYTRGDYVPGIWVDGMDILAVREATKWAKEYCDSGKGPLMMEMATYRYHGHSMSDPGTSYRTREEIQEVRKTRDPITGFKDRIITSSLATEEELKAIDKEVRKEVDEALKIATSDGVLPPEALYADIYHNTPAQEIRGATIDETIVQPFKTSADVLKSIGRA | not soluble |
| MSLGAMPTVRDLRLIPFRIPLKAPLRWGKSSELAALEHALLEVELSDGSIGRAEVAIRPTIYGETLGSVRAGLEYLRPRLLGLEADDQEGIRAVLEAFPFNFGLKGALDTALWEAWARSEGEELYQVLKPAKHRVRVAYILGLGEEDEVLEDARMAFGAGVRVFKVKVGRDLEADTRRILRLKEAFPEAELYADANESLPPKEAERYLLAWKELGLRYVEEPLPVEEVEARRALREKGILSLIADDAAMTPKDLKRELALNTFDVLNLKPARTGVTWTLEMLALARERGKKAMVGSQAQSAFGAYQSALLAFQQGVTEPCELAFHLKAEGGFFPFPPFREGWLYWEDLVEARFDEEAFARYALKEAEGHHHHHH | soluble |
| MSLGCTNFIQVGTVLGAPNVFLIGDAREVGHQGYENILREAKKVLTFDLDEKLRGFKNIVVYPGTFDFEGIVKNLDSDAKITVDIAYDVNDADELSRVYGASHALAISTSSELFSSLALENLGPLLKACKTRSAKHLLLKENRGGSRLFDLESGESWEIPATLARTVNSVGVGDVYTAVFAALIDHGALTAALRGMQAATRYAQTTFPDDFKRDVQRDFKLTPDEVLSLGGVLLPWHDRPHFEIYLAAPDFSYMEKAEVDAAVEALLYHNFTVRRPVQDNGEACPGTPAEDLRSYYDRDVELLRRCSLVFAVPLNRDPGTLVEIGLAIAAGTPVVTYDPRQENNNTMVICGSDAYSDDLDQCLNSTFELLAKLREQAKEGHHHHHH | not soluble |
| MSLGDQKPATIYAPTVRVTPNPAWPQVSWQLLVAKPSAARIIDSPRINVRPTPGELQVYHGAGWAQPATDMLEDSVVRAFEDSGKIAAVARIGAGIRSDYKLAIDVRRFESDYAGQSLPAATIELNAKLLHSSDQRVVASRTFTVARPSSSTDTAAVAAAFEQALTQVTTELVGWTLITGQQDSQTLPRALEGHHHHHH | soluble |
| MSLGESRKHIDYKKGTINLNGVEYPLNDTNFPTINPENPLELLEEEAELLDKLQASFLGSEKLQKHMQLLFAKGGMYLKYNSNLLFHACIPMEPNGEFSKLYVEDGYYKGKALMDKIDNIVRQAYYDRKNVEVNKKHRDFIWYLWAGRLSPLFGKDVMKTFERYFIDDKSTHKEIKNPYHKLINDEKICDKIFEEFGLNPRTSHIINGHIPVKVKEGESPIKANGKLLIIDGGFSRAYQSTTGIAGYTLTYNSYGMKLASHLKFISKEAAIKDGTDMISSHIIVETKSKRMKVKDTDIGKNIQNQINDLKKLLKAYRIGLIKSNEGHHHHHH | not soluble |
| MSLGFASQQEAVNDFWGWPSDESDKEAVEASIRKYANAIADTINKYGYDGFDIDYEPNYGNKGNIVDDDDRMFIFVDELGKHFGPKSGTGKLLIIDGEPQSIKNRPDVGPYFDYFIIQAYKPGNDNNLDKRLIDGGVAGPGLVQTYGSVMSEEQITKMTIMTENFEAVDAAMDGGYPYTDRYGNSMKSLEGMARWQPKNGFRKGGVGSYHMEAEYPTNPEYKNLRKAIQIMNPSTKPLIKYEGHHHHHH | soluble |
| MSLGGPNADAQRANQRNVKKPNTQTKIRLPESVRTKKPVDMDVAPVRQSSRDEIRYAANELDTFIERELLAEGIAAEELASDEVFLRRIYLDVAGRIPTLQEAEQFLSSKSSDRREELIDQLLSSPDYVSHTYNWWADTLRLVDRPQPNLVADPYNGYIKESIAENKPYDKWVYEMLTADGKVWDNPAVGFQLRDDGMPLPYIDNTVRVFLGTQIGCAQCHDHPFDEWSQYQFYQLAAFTAGTSTRMRKGDPGYEKTNPANDLINEGKKRYEKGRVPGEFQRIARANTYIVSERPRRLRLPHDYAYRDAKPKDFVEPKVLWGEIPSSAAKSTPREQFAAWVTSPENPRFSQTVVNRLWKRLMGVGFVDPVDDFRDENPCVNEAAMDYLCKELVRRGFDLKELTRIVLYSQTYQRKAVDYDITDGDLYYFPGPTVRRMTAEQVWDSILTLAVDNPWPFQRPTAKEMKPVMDLDFSKVDFEEVQRRSAKFKETYFASTYKRNLNQHAYQRNVLCRASELPAPLPADHFLRQFGQGDREVINGSQDEATVPQILAMFNGPITHVMLEPGSALVDNVLEVNNVKNRIDAIFLSVLTRKPSTEDRILASRELSSQNQTGVGYGNIIWALLNTREFLFVQEGHHHHHH | not soluble |
| MSLGIKAVIFDLDGVIVSTDEYHYRAWKAMADEEGIYFDKRINERLRGVGRMESLEIILEKAKKTYNTKEKIQMTERKNFIYRELLNELTPKHILKGVMNVLETLRAKNIKIAIGSSSKNTSIILEKIKLDKYFDAVADGREIKKSKPNPEVFLLAAKKLKVSPEECLIVEDADAGVEAAIAGGMKVLAVGYASNNIKANYKFKDLSCVDIKEVICKEGHHHHHH | soluble |
